Results: patent publication US20240270821A1, “GIP/GLP1/GCG TRI-RECEPTOR AGONISTS AND USES THEREOF” (priority 2023, published 2024)
Non-standard residues stand in square brackets, D forms with d. No end group written: not given here. αMePhe(2-F) = C[C@](N)(Cc1ccccc1F)C(=O)O; Aib = CC(C)(N)C(=O)O

T1: human GIP receptor (human) (UniProt P48546)
T1 sequence (looked up): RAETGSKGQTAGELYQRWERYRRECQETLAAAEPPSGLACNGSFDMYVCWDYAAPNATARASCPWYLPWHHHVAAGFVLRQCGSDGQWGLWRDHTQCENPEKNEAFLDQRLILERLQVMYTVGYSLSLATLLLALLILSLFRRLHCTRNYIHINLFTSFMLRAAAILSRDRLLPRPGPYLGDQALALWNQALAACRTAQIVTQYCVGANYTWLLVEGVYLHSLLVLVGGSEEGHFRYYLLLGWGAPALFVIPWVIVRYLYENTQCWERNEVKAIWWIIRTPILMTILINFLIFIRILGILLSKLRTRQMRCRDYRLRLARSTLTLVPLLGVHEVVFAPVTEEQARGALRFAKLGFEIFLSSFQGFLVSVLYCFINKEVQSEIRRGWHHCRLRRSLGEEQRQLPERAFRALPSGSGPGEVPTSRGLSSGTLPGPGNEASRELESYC

B1: Example 405 (peptide)
chain: YXQGTFTSDFSKXLDKKAQXAFIEYLAAGGPSSGEPPPSGE
modifications: synthetic construct; SITE 2: note = 2-Aminoisobutyric Acid; SITE 13: note = alpha-methyl-leucine; SITE 17: note = Lysine is chemically modified through conjugation of the epsilon-amino group of the Lysine side chain with (epsilon-K)2-(gamma-Glu)-CO-(CH2)18-CO2H; SITE 20: note = 2-Aminoisobutyric Aci
B2: Example 411 (peptide)
chain: YXQGTXTSDYSILLDKKAQXAFIEXLEEGGPSSGAPPPSEG
modifications: synthetic construct; SITE 2: note = 2-Aminoisobutyric Acid; SITE 6: note = alpha-methyl-2-fluoro-L-phenylalanine; SITE 17: note = Lysine is chemically modified through conjugation of the epsilon-amino group of the Lysine side chain with (2-[2-(2-Amino-ethoxy)-ethoxy]-acetyl)-(gamma-Glu)-CO-(CH2) 16-
B3: Example 412 (peptide)
chain: YXQGTXTSDYSILLDKKAQXAFIEFLEEGGPSSGAPPPSEG
modifications: not fully specified; synthetic construct; SITE 2: note = 2-Aminoisobutyric Acid; SITE 6: note = alpha-methyl-2-fluoro-L-phenylalanine; SITE 17: note = Lysine is chemically modified through conjugation of the epsilon-amino group of the Lysine side chain with (2-[2-(2-Amino-ethoxy)-ethoxy]-acetyl)-(gamma-Glu)-CO-(CH2) 16-
B4: Example 417 (peptide)
chain: YXQGTXTSDYSIXLDKKAQXAFIEYLLETGPSSGAPPPSEG
modifications: synthetic construct; SITE 2: note = 2-Aminoisobutyric Acid; SITE 6: note = alpha-methyl-2-fluoro-L-phenylalanine; SITE 13: note = alpha-methyl-leucine; SITE 17: note = Lysine is chemically modified through conjugation of the epsilon-amino group of the Lysine side chain with (2-[2-(2-Amino-ethoxy)-et)
B5: Example 420 (peptide)
chain: YXQGTXTSDYXIXLDXKAQXAFIEYLLEGGPSSGEPPPE
modifications: synthetic construct; SITE 2: note = 2-Aminoisobutyric Acid; SITE 6: note = alpha-methyl-L-phenylalanine; SITE 11: note = alpha-methyl-L-serine; SITE 13: note = alpha-methyl-leucine; SITE 16: note = L-ornithine; SITE 17: note = Lysine is chemically modified through conjugation of the epsilon-amino gr
B6: Example 406 (peptide)
chain: YXQGTXTSDYSILLDKKAQXAFIEYLEEGGPSSGAPPPS
modifications: synthetic construct; SITE 2: note = 2-Aminoisobutyric Acid; SITE 6: note = alpha-methyl-2-fluoro-L-phenylalanine; SITE 17: note = Lysine is chemically modified through conjugation of the epsilon-amino group of the Lysine side chain with (gamma-Glu)2-CO-(CH2)16-CO2H; SITE 20: note = 2-Aminoisobutyric
B7: Example 409 (peptide)
chain: YXQGTXTSDYSSLLDKKAQXAFIEYLEEGGPSSGAPPPS
modifications: synthetic construct; SITE 2: note = 2-Aminoisobutyric Acid; SITE 6: note = alpha-methyl-2-fluoro-L-phenylalanine; SITE 17: note = Lysine is chemically modified through conjugation of the epsilon-amino group of the Lysine side chain with (2-[2-(2-Amino-ethoxy)-ethoxy]-acetyl)-(gamma-Glu)-CO-(CH2) 16-
B8: Example 416 (peptide)
chain: YXQGTXTSDYSILLDKKAQXNFIEYLEEGGPSSGAPPPS
modifications: synthetic construct; SITE 2: note = 2-Aminoisobutyric Acid; SITE 6: note = alpha-methyl-2-fluoro-L-phenylalanine; SITE 17: note = Lysine is chemically modified through conjugation of the epsilon-amino group of the Lysine side chain with (gamma-Glu)2-CO-(CH2)16-CO2H; SITE 20: note = 2-Aminoisobutyric
B9: Example 423 (peptide)
chain: YXQGTXTSDYSIXLDKKAQXAFIEYLEEGGPSSGAPEPS
modifications: synthetic construct; SITE 2: note = 2-Aminoisobutyric Acid; SITE 6: note = alpha-methyl-2-fluoro-L-phenylalanine; SITE 13: note = alpha-methyl-leucine; SITE 17: note = Lysine is chemically modified through conjugation of the epsilon-amino group of the Lysine side chain with (2-[2-(2-Amino-ethoxy)-et)
B10: Example 419 (peptide)
chain: YXQGTXTSDYSILLDKKAQXAFIEYLLEGGPSSGAPPPS
modifications: synthetic construct; SITE 2: note = 2-Aminoisobutyric Acid; SITE 6: note = alpha-methyl-L-phenylalanine; SITE 17: note = Lysine is chemically modified through conjugation of the epsilon-amino group of the Lysine side chain with (2-[2-(2-Amino-ethoxy)-ethoxy]-acetyl)2-(gamma-Glu)-CO-(CH2 )16-CO2H; SI
B11: Example 414 (peptide)
chain: YXQGTXTSDYSILLDXKAQXAFIEYLEEGGPSSGAPPPS
modifications: synthetic construct; SITE 2: note = 2-Aminoisobutyric Acid; SITE 6: note = alpha-methyl-2-fluoro-L-phenylalanine; SITE 16: note = L-ornithine; SITE 17: note = Lysine is chemically modified through conjugation of the epsilon-amino group of the Lysine side chain with (gamma-Glu)2-CO-(CH2)16-CO2H; SITE
B12: Example 413 (peptide)
chain: YXQGTXTSDXSILLDKKAQXAFIEYLEEGGPSSGAPPPS
modifications: not fully specified; synthetic construct; SITE 2: note = 2-Aminoisobutyric Acid; SITE 6: note = alpha-methyl-2-fluoro-L-phenylalanine; SITE 10: note = 3-(4-Pyridyl)-L-alanine; SITE 17: note = Lysine is chemically modified through conjugation of the epsilon-amino group of the Lysine side chain with (gamma-Glu)2-CO-(CH2)1
B13: Example 418 (peptide)
chain: YXQGTXTSDXSILLDKKAQXAFIEYLLEGGPSSGAPPPS
modifications: synthetic construct; SITE 2: note = 2-Aminoisobutyric Acid; SITE 6: note = alpha-methyl-L-phenylalanine; SITE 10: note = 3-(4-Pyridyl)-L-alanine; SITE 17: note = Lysine is chemically modified through conjugation of the epsilon-amino group of the Lysine side chain with (2-[2-(2-Amino-ethoxy)-ethoxy]-
B14: Example 415 (peptide)
chain: YXQGTXTSDYSILLDKKAQXXFIEYLEEGGPSSGAPPPS
modifications: synthetic construct; SITE 2: note = 2-Aminoisobutyric Acid; SITE 6: note = alpha-methyl-2-fluoro-L-phenylalanine; SITE 17: note = Lysine is chemically modified through conjugation of the epsilon-amino group of the Lysine side chain with (gamma-Glu)2-CO-(CH2)16-CO2H; SITE 20: note = 2-Aminoisobutyric
B15: Example 408 (peptide)
chain: YXQGTXTSDYSILLDKKAQXAFIEYLEEGGPSSGAPPPE
modifications: synthetic construct; SITE 2: note = 2-Aminoisobutyric Acid; SITE 6: note = alpha-methyl-2-fluoro-L-phenylalanine; SITE 17: note = Lysine is chemically modified through conjugation of the epsilon-amino group of the Lysine side chain with (2-[2-(2-Amino-ethoxy)-ethoxy]-acetyl)-(gamma-Glu)-CO-(CH2) 16-
B16: Example 421 (peptide)
chain: YXQGTXTSDYSIXLDKKAQXAFIEYLEEGGPSSGAPPPS
modifications: synthetic construct; SITE 2: note = 2-Aminoisobutyric Acid; SITE 6: note = alpha-methyl-2-fluoro-L-phenylalanine; SITE 13: note = alpha-methyl-leucine; SITE 17: note = Lysine is chemically modified through conjugation of the epsilon-amino group of the Lysine side chain with (2-[2-(2-Amino-ethoxy)-et)

Tests used:
Assay in all cases: cell-based or functional assay
[1] = target: hGLP-1R (Homo sapiens, UniProt P43220)
[2] = target: T1, human GIP receptor (human)
[3] = target: human glucagon receptor (human) (UniProt P47871)
Chain of human glucagon receptor (human) (P47871 26-477): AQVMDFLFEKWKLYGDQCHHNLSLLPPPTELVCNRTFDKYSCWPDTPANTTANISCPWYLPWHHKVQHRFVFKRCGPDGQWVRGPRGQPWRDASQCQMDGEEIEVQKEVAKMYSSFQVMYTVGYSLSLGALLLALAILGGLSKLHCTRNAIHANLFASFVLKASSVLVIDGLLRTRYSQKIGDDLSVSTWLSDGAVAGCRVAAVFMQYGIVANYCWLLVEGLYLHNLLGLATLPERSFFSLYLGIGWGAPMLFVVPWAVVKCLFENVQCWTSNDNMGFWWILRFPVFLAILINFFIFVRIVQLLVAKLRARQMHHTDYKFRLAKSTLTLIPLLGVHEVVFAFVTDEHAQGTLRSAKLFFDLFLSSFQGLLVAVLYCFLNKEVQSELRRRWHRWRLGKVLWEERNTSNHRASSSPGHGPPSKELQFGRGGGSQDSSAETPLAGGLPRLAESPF

Chain of hGLP-1R (P43220 24-463): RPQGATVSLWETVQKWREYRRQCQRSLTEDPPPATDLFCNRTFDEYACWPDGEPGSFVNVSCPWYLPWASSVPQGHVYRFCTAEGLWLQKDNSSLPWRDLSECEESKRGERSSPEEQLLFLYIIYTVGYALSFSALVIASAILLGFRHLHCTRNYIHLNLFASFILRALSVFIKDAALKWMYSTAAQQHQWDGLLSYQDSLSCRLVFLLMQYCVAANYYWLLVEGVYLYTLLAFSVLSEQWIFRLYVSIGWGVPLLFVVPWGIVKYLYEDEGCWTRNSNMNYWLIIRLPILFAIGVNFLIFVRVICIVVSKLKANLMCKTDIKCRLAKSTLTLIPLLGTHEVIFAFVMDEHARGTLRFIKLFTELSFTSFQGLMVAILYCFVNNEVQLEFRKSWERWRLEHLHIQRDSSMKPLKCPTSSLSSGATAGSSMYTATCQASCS

Binder | Relative cAMP EC50 [1] | cAMP Rel EC50, nM (1% HSA) [1] | Relative cAMP EC50 [2] | cAMP Rel EC50, nM (1% HSA) [2] | Relative cAMP EC50 [3] | cAMP Rel EC50, nM (1% HSA) [3]
B1 | 1.48 nM | 285 nM | 0.28 nM | 32.1 nM | 15.5 nM | 2530 nM
B2 | 0.709 nM | 82.1 nM | 0.058 nM | 23.8 nM | 3.94 nM | 1170 nM
B3 | 0.282 nM | 46 nM | 0.0351 nM | 12.5 nM | 2.36 nM | 467 nM
B4 | 0.328 nM | 67 nM | 0.0144 nM | 4.46 nM | 2.83 nM | 386 nM
B5 | 0.205 nM | 31.3 nM | 0.0131 nM | 2.61 nM | 2.49 nM | 433 nM
Y[Aib]QGT[αMePhe(2-F)]TSDYSILLDAKAFIEYLEEGGPSSGAPPPSEG-NH2 (not fully specified (residue 17)) [Example 410] | 0.354 nM | 84.4 nM | 0.0708 nM | 49.3 nM | 9.94 nM | 1950 nM
B6 | 0.208 nM | 27.8 nM | 0.0233 nM | 10.5 nM | 1.23 nM | 254 nM
B7 | 0.484 nM | 41.7 nM | 0.363 nM | 66.6 nM | 7.92 nM | 1190 nM
B8 | 0.331 nM | 40.8 nM | 0.0393 nM | 27.6 nM | 2.08 nM | 348 nM
B9 | 0.194 nM | 28.7 nM | 0.0114 nM | 3.07 nM | 1.92 nM | 319 nM
B10 | 0.615 nM | 65.5 nM | 0.0235 nM | 9.47 nM | 8.52 nM | 1650 nM
B11 | 0.176 nM | 32.8 nM | 0.0303 nM | 14.9 nM | 4.56 nM | 487 nM
B12 | 0.564 nM | 41.4 nM | 0.0881 nM | 23.5 nM | 6.3 nM | 629 nM
B13 | 0.264 nM | 36.6 nM | 0.0153 nM | 6.02 nM | 4.7 nM | 627 nM
B14 | 0.38 nM | 52.6 nM | 0.0496 nM | 28.9 nM | 8.64 nM | 1090 nM
B15 | 0.253 nM | 37.9 nM | 0.0329 nM | 15.3 nM | 1.93 nM | 472 nM
B16 | 0.21 nM | 31.9 nM | 0.0132 nM | 2.98 nM | 3.25 nM | 468 nM
